Results taken from patent US20240101677A1 (Innovent, published 2024).

Legend:
[1] = target: T1, CD16A on human primary NK cells (human, UniProt P08637 17-254); experiment: flow cytometry (MFI, PE-A) on human primary NK cells, donor SLB190071
T1 construct: whole, on cells; also called primary natural killer (NK) cells
Description: (§1) Human PBMC cells were thawed (Sailybio, SLB190084 & SLB190071), and NK cells were enriched and isolated using a human NK cell enrichment kit (Stemcell, 19055) and centrifuged at 400 g for 5 min. The supernatant was removed, and the cells were resuspended in PBS. After counting, the cells were adjusted to a density of 2×10⁶ cells/mL, and the cell suspension was added to a U-bottom 96-well plate at 100 μL/well. Then, the test antibody was added to make a final concentration of 100 nM, and subjected to a 6-fold dilution to obtain 10 gradients. The mixture was left to stand on ice for a reaction for 1 h. The mixture was centrifuged at 300 g for 5 min, and the supernatant was removed. The cells were washed once with PBS. The mixture was centrifuged at 300 g for 5 min, and PBS was removed. 100 μL of PE-anti-human Fc antibody (Southern Biotech, 2040-09) diluted at a ratio of 1:200 was added to each well. The mixture was incubated on ice for 30 min in the dark. The mixture was centrifuged at 400 g for 5 min, and the supernatant was removed. The cells were washed twice with PBS, and then resuspended in 100 μL of PBS. A fluorescence shift assay was performed by using a flow cytometer (BD, Facscelesta). […] The control antibody used in FIGS. 2A and 2B was the same as that in Example 5.
In this example, the binding of anti-CD16A/HER2 and anti-CD16A/BCMA bispecific antibodies (subjected to gradient dilution) of the present invention to primary NK cells was assayed by flow cytometry. The assay method was the same as that in Example 6.

[2] = target: T1, CD16A on human primary NK cells; experiment: flow cytometry (MFI, PE-anti-human Fc) on human primary NK cells, donor SLB190084
Description: as §1

[3] = target: T2, human CD16A (type 158V) on GS-CHO cells (human, UniProt P08637 17-254); experiment: flow cytometry (MFI, PE-anti-human Fc) on GS-CHO cells expressing human CD16A (type 158V)
T2 construct: whole, on cells; also called GS-CHO cells expressing human CD16A
Description: After counting, the cells were adjusted to a density of 2×10⁶ cells/mL, and the cell suspension was added to a U-bottom 96-well plate at 100 μL/well. […] The mixture was centrifuged at 300 g for 5 min, and the supernatant was removed. The cells were washed once with PBS. The mixture was centrifuged at 300 g for 5 min, and PBS was removed. 100 μL of PE-anti-human Fc antibody (Southern Biotech, 2040-09) diluted at a ratio of 1:200 was added to each well. The mixture was incubated on ice for 30 min in the dark. The mixture was centrifuged at 400 g for 5 min, and the supernatant was removed. The cells were washed twice with PBS, and then resuspended in 100 μL of PBS. A fluorescence shift assay was performed by using a flow cytometer (BD, Facscelesta).

T1 sequence (P08637 17-254): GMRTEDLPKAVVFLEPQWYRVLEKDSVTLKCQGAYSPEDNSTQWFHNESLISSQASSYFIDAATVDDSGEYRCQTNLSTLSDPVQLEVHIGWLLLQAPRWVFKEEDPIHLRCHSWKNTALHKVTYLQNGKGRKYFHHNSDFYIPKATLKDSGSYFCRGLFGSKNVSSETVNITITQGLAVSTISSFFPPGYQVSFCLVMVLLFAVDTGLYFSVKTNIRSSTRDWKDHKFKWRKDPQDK
T2 sequence (P08637 17-254 F176V): as the sequence (P08637 17-254) above, with F160V counted along it

B1: 16A067 (bispecific antibody, human IgG1, kappa, L234A L235A)
heavy 1: not shown
heavy 2: EVQLVESGGGLVQPGRSLRLSCAASGFTFGDYAIHWVRQAPGKGLEWVSGISWDSSSIAYADSVKGRFTISRDNAKNSLYLQMNSLRAEDTAVYYCAKDSPVRDSFGSIAFDIWGQGTMVTVSSASTKGPSVFPLAPSSKSTSGGTAALGCLVKDYFPEPVTVSWNSGALTSGVHTFPAVLQSSGLYSLSSVVTVPSSSLGTQTYICNVNHKPSNTKVDKKVEPKSCDKTHTCPPCPAPEAAGGPSVFLFPPKPKDTLMISRTPEVTCVVVDVSHEDPEVKFNWYVDGVEVHNAKTKPREEQYNSTYRVVSVLTVLHQDWLNGKEYKCKVSNKALPAPIEKTISKAKGQPREPQVCTLPPSRDELTKNQVSLSCAVKGFYPSDIAVEWESNGQPENNYKTTPPVLDSDGSFFLVSKLTVDKSRWQQGNVFSCSVMHEALHNHYTQKSLSLSPGK
light: not shown
notes: 1+1 knob-into-hole format, sdAb-Fc arm and Fab-Fc arm, LALA; also called anti-CD16A/BCMA bispecific antibody (Y88A3 x ADI384-56)
[1]
  EC50: 14.2 nM

B2: 16A070 (bispecific antibody, human IgG1, kappa, L234A L235A)
heavy 1: not shown
heavy 2: EVQLVESGGGLVQPGRSLRLSCAASGFTFGDYAIHWVRQAPGKGLEWVSGISWDSSSIAYADSVKGRFTISRDNAKNSLYLQMNSLRAEDTAVYYCAKDSPVRDSFGSIAFDIWGQGTMVTVSSASTKGPSVFPLAPSSKSTSGGTAALGCLVKDYFPEPVTVSWNSGALTSGVHTFPAVLQSSGLYSLSSVVTVPSSSLGTQTYICNVNHKPSNTKVDKKVEPKSCDKTHTCPPCPAPEAAGGPSVFLFPPKPKDTLMISRTPEVTCVVVDVSHEDPEVKFNWYVDGVEVHNAKTKPREEQYNSTYRVVSVLTVLHQDWLNGKEYKCKVSNKALPAPIEKTISKAKGQPREPQVCTLPPSRDELTKNQVSLSCAVKGFYPSDIAVEWESNGQPENNYKTTPPVLDSDGSFFLVSKLTVDKSRWQQGNVFSCSVMHEALHNHYTQKSLSLSPGK
light: not shown
notes: 1+1 knob-into-hole format, sdAb-Fc arm and Fab-Fc arm, LALA; also called anti-CD16A/BCMA bispecific antibody (Y95H1 x ADI384-56)
[1]
  EC50: 7.96 nM

B3: 16A068 (bispecific antibody, human IgG1, kappa, L234A L235A)
heavy 1: not shown
heavy 2: EVQLVESGGGLVQPGRSLRLSCAASGFTFGDYAIHWVRQAPGKGLEWVSGISWDSSSIAYADSVKGRFTISRDNAKNSLYLQMNSLRAEDTAVYYCAKDSPVRDSFGSIAFDIWGQGTMVTVSSASTKGPSVFPLAPSSKSTSGGTAALGCLVKDYFPEPVTVSWNSGALTSGVHTFPAVLQSSGLYSLSSVVTVPSSSLGTQTYICNVNHKPSNTKVDKKVEPKSCDKTHTCPPCPAPEAAGGPSVFLFPPKPKDTLMISRTPEVTCVVVDVSHEDPEVKFNWYVDGVEVHNAKTKPREEQYNSTYRVVSVLTVLHQDWLNGKEYKCKVSNKALPAPIEKTISKAKGQPREPQVCTLPPSRDELTKNQVSLSCAVKGFYPSDIAVEWESNGQPENNYKTTPPVLDSDGSFFLVSKLTVDKSRWQQGNVFSCSVMHEALHNHYTQKSLSLSPGK
light: not shown
notes: 1+1 knob-into-hole format, sdAb-Fc arm and Fab-Fc arm, LALA; also called anti-CD16A/BCMA bispecific antibody (Y99F6 x ADI384-56)
[1]
  EC50: 50.5 nM

B4: 16A069 (bispecific antibody, human IgG1, kappa, L234A L235A)
heavy 1: not shown
heavy 2: EVQLVESGGGLVQPGRSLRLSCAASGFTFGDYAIHWVRQAPGKGLEWVSGISWDSSSIAYADSVKGRFTISRDNAKNSLYLQMNSLRAEDTAVYYCAKDSPVRDSFGSIAFDIWGQGTMVTVSSASTKGPSVFPLAPSSKSTSGGTAALGCLVKDYFPEPVTVSWNSGALTSGVHTFPAVLQSSGLYSLSSVVTVPSSSLGTQTYICNVNHKPSNTKVDKKVEPKSCDKTHTCPPCPAPEAAGGPSVFLFPPKPKDTLMISRTPEVTCVVVDVSHEDPEVKFNWYVDGVEVHNAKTKPREEQYNSTYRVVSVLTVLHQDWLNGKEYKCKVSNKALPAPIEKTISKAKGQPREPQVCTLPPSRDELTKNQVSLSCAVKGFYPSDIAVEWESNGQPENNYKTTPPVLDSDGSFFLVSKLTVDKSRWQQGNVFSCSVMHEALHNHYTQKSLSLSPGK
light: not shown
notes: 1+1 knob-into-hole format, sdAb-Fc arm and Fab-Fc arm, LALA; also called anti-CD16A/BCMA bispecific antibody (Y100D6 x ADI384-56)
[1]
  EC50: 15.3 nM

B5: Isotype-IgG1-Fc-LALA (antibody)
variable region (heavy or light not stated; listed first): EVRLLESGGGLVQPGGSLRLSCAASGFTFSNYAMGWVRQAPGKCLEWVSAISGSGGSTYYADSVKGRFTTSRDDSKNALYLQMNSLRAEDTAVYYCARGGPGWYAADVWGQGTTVTVSS
variable region (heavy or light not stated; listed second): DIQMTQSPSSLSASVGDRVTITCRASQSISSYLNWYQQKPGKAPKLLIYAASSLQSGVPSRFSGSGSGTDFTLTISSLQPEDFATYYCQQADLPAFAFGCGTKVEIK
notes: also called anti-Hen Egg Lysozyme (HEL) antibody; negative control
[2]
  binding result: no binding (tested: log 2 (100 nM))
[3]
  binding result: no binding (tested: log 2.8 (about 600 nM))
